Values quoted from earlier work, collected in article PMC9445421.
Read-outs that look alike come from different tables or passages of the source.

Experiments:
TrkB (Homo sapiens) [1] = target: TrkB (Homo sapiens) (UniProt Q16620)
TrkB (Homo sapiens) [2] = target: TrkB (Homo sapiens) (UniProt Q16620); remark: listed apart in the source

Sequence of UniProt Q16620 (Q16620 32-430): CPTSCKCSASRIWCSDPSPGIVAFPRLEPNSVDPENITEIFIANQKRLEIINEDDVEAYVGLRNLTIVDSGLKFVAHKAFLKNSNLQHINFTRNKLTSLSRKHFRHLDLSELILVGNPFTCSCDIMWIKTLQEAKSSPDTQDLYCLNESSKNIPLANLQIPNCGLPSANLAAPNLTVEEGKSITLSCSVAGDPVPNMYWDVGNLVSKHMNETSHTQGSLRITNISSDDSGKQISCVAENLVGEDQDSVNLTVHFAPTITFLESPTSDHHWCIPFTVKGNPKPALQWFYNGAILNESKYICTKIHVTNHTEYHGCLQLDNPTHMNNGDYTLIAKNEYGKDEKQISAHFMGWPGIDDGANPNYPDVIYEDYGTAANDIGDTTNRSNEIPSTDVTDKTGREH

Kd (TrkB (Homo sapiens) [1]) [nM]	Kd (TrkB (Homo sapiens) [2]) [nM]	Substance
0.79	–	BDNF (from UniProt P23560)
–	0.26	NT4 (from UniProt P34130)
